Consider 1 molecule from publication PMC3865722 (2014).

What all share (assay): competitive inhibition of Tra2β
For one test, the target named is T1, Tra2β(ΔN) 114-288 (Homo sapiens, UniProt P62995).
T1 chain: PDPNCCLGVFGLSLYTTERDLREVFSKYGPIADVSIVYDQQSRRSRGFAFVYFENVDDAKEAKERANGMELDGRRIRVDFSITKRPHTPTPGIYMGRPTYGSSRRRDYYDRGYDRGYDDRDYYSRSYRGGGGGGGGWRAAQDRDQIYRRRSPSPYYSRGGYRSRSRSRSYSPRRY

The target in test [1] is T2, Tra2β(ΔN/RRM) C-terminal RS domain (Homo sapiens, UniProt P62995).
T2 chain: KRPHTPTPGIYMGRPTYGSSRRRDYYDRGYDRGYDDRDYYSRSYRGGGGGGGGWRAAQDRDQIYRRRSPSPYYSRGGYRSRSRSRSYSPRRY

Test [2] deals with T3, Tra2β(ΔN/RS2) RRM and N-terminal half of C-terminal RS domain (Homo sapiens, UniProt P62995).
T3 chain: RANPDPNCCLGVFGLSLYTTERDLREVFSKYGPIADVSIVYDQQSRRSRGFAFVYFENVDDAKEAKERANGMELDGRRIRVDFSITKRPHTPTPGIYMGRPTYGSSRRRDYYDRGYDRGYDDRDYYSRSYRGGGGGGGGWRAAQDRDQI

B1: SRPK1 (protein)
chain: MERKVLALQARKKRTKAKKDKAQRKSETQHRGSAPHSESDLPEQEEEILGSDDDEQEDPNDYCKGGYHLVKIGDLFNGRYHVIRKLGWGHFSTVWLSWDIQGKKFVAMKVVKSAEHYTETALDEIRLLKSVRNSDPNDPNREMVVQLLDDFKISGVNGTHICMVFEVLGHHLLKWIIKSNYQGLPLPCVKKIIQQVLQGLDYLHTKCRIIHTDIKPENILLSVNEQYIRRLAAEATEWQRSGAPPPSGSAVSTAPQPKPADKMSKNKKKKLKKKQKRQAELLEKRMQEIEEMEKESGPGQKRPNKQEESESPVERPLKENPPNKMTQEKLEESSTIGQDQTLMERDTEGGAAEINCNGVIEVINYTQNSNNETLRHKEDLHNANDCDVQNLNQESSFLSSQNGDSSTSQETDSCTPITSEVSDTMVCQSSSTVGQSFSEQHISQLQESIRAEIPCEDEQEQEHNGPLDNKGKSTAGNFLVNPLEPKNAEKLKVKIADLGNACWVHKHFTEDIQTRQYRSLEVLIGSGYNTPADIWSTACMAFELATGDYLFEPHSGEEYTRDEDHIALIIELLGKVPRKLIVAGKYSKEFFTKKGDLKHITKLKPWGLFEVLVEKYEWSQEEAAGFTDFLLPMLELIPEKRATAAECLRHPWLNS
As a reminder, the Ki is a measure of affinity in units of concentration, obtained from inhibition or displacement. High values mean a looser hold on the target, low ones a stronger hold on the target. B1: the Ki with Tra2β(ΔN) 114-288 amounted to 11 nM; in test [1] it was 45 nM; in test [2] it was 180 nM.
